Holding throughout (assay type): biochemical
The subject of one test is human IgM. The experiment in a line: IdeS cleavage assay of Ig classes: IgM. The settings on record: purified IdeS, 2 h at 37° C. The procedure: For standard IdeS activity assays, bacteria cultures were grown to OD620=0.4. Bacteria were pelleted by centrifugation and supernatants were sterile-filtered through a 0.22 μm membrane (Millipore) prior to use. For activity assays, […] of supernatant were mixed with 5 μl of IgG (10 mg/ml, Sigma) and the volume was adjusted with PBS to 100 μl. For screening of IdeS activity in different S. progenes strains, E64 was added to a final concentration of 40 μM. The mixtures were incubated at 37° C. for 30 min and samples were analyzed by 12% SDS-PAGE. For cleavage assays of different classes of Ig, purified IdeS (0.3 μg/ml) was incubated with 3 μg Ig for 2 h at 37° C., and analyzed by 12% SDS-PAGE analysis.

The next test relates to whole human plasma. Description: Incubation of human plasma with IdeS.
The target of the next test is albumin (Homo sapiens, UniProt P02768). Description: IdeS cleavage of other human proteins: albumin.
A further test addresses transferrin (Homo sapiens, UniProt P02787). The experiment in a line: IdeS cleavage of other human proteins: transferrin.
In the next test the test system is laminin. Description: IdeS cleavage of other human proteins: laminin.
Test [1] concerns synthetic peptide homologous to amino acids 234 to 241 of human IgG. Description: IdeS activity towards peptides: IgG hinge peptide.

Chain of transferrin (P02787 20-698): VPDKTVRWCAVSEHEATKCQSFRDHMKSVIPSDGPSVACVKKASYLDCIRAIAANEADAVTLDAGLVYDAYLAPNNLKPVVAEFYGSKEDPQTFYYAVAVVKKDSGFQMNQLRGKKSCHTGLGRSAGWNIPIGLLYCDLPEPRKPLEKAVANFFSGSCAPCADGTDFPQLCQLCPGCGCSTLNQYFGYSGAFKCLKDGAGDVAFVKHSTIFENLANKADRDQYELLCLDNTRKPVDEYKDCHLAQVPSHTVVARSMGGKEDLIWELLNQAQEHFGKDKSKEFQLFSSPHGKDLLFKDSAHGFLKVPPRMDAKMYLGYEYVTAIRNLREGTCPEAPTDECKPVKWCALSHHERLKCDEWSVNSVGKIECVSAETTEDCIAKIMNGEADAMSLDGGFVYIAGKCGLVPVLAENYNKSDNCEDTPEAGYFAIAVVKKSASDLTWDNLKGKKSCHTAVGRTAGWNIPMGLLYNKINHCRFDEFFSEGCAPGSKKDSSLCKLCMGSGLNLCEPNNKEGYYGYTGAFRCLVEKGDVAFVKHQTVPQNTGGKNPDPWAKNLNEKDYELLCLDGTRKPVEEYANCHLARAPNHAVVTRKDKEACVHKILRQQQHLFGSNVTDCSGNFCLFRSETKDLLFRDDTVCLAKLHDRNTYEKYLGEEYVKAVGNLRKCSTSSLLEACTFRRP

B1: IdeS: new extracellular cysteine protease produced by S. pyogenes, highly specific for IgG; SEQ ID NO: 1 (protein)
chain: DSFSANQEIRYSEVTPYHVTSVWTKGVTPPANFTQGEDVFHAPYVANQGWYDITKTFNGKDDLLCGAATAGNMLHWWFDQNKDQIKRYLEEHPEKQKINFNGEQMFDVKEAIDTKNHQLDSKLFEYFKEKAFPYLSTKHLGVFPDHVIDMFINGYRLSLTNHGPTPVKEGSKDPRGGIFDAVFTRGDQSKLLTSRHDFKEKNLKEISDLIKKELTEGKALGLSHTYANVRINHVINLWGADFDSNGNLKAIYVTDSDSNASIGMKKYFVGVNSAGKVAISAKEIKEDNIGAQVLGLFTLSTGQDSWNQTN
modifications: S. Pyogenes
B1: in the test on human IgM, the “degradation of human IgM” value was “only IgG was degraded”. The “degradation products in human plasma” value in the test with whole human plasma (purified IdeS) was “only the 31 kDa IgG-derived band and no additional degradation products could be identified”. Further, in the test on whole human plasma (whole human plasma, further studies), the cleavage products result was “No cleavage products could be detected”. Further, the “cleavage products, albumin” value with albumin is listed as “No cleavage products could be detected”. Moreover, the “cleavage products, transferrin” value with transferrin was “No cleavage products could be detected”. For the same molecule, in the test on laminin, the “cleavage products, laminin” value is “No cleavage products could be detected”. The “degradation of synthetic peptide (amino acids 234 to 241 of human IgG)” value in test [1] is “did not reveal any degradation”.

The values above are taken from patent US7666582B2, “IdeS, an IgG-degrading enzyme of Streptococcus pyogenes” (Hansa Medical Research AB, priority 2001, dated 2010).
